According to the supplement of paper PMC12042874:
± gives the uncertainty stated by the source.

assay: amyloid nucleation score (Sup35N fusion, yeast selection) (log enrichment); library NNK3; higher = more nucleation; inactive = no reads after selection
Procedure, shortened: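 DiMSum was used to calculate nucleation scores as log enrichment of output over input reads, centred on the mode score of non-aggregating sequences. Sequences with fewer than 100 input reads were not scored. Input and output came from Illumina sequencing of plasmid inserts in psi-negative yeast expressing peptides of 20 random codons fused to Sup35N, induced 24 hours with 100 μM copper sulfate and then grown 7 days at 30°C on medium lacking adenine and uracil.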

Substance	amyloid nucleation score
KVCGCSILLLKLRGVNRVVS	inactive
GWKFMREYSKRIGSSSPVVY	inactive
VTWAAMWASRRVIQVITLRL	inactive
YFIRVILPFQLTLVVIWYKF	inactive
DYYLNLGGK	inactive
IVVCRKEDSAQRFSFVRLSD	inactive
ISGKCRIVAVESSCECSLSS	inactive
NKVFMEDQGLKVHWV	inactive
SLTFTLCRVHGGRESRVSLG	0.319 ± 0.81
SGNDISCPATSIHFRVGVRS	inactive
SLNNSMVWKYH	inactive
CEHCMYNRKPR	inactive
TLSHIGGIEGFINGCLSVGP	inactive
FRGCYRFELLSDTCISRELV	inactive
WAPLQALSFGK	inactive
CMIHYSSRAILEMWLAPRMY	inactive
SSLITFAPIPSLYWDCFSRF	inactive
CWDEIHIMKAHIRSYGGSVS	inactive
SASKKLTAFALVVFLRV	inactive
LGPAVELGMT	inactive
KDNKGMGRMFSNILFFTISL	0.663 ± 0.13
RTVIGLPASMLLSCDHISFV	inactive
QARVRYDASTLLFGCTFC	2.65 ± 0.079

Substance	amyloid nucleation score
GKQIRSNR	inactive
LEGLMANVMRGFRSVVPATW	inactive
YVICVISVQRWTM	inactive
SCTVKLDCNAVDSVSMDDVD	inactive
TNNINALMLAIPINEYVVGH	inactive
QISFGLLINLSVIFSGLDLV	0.801 ± 0.27
ICTLCNVSRLLWSPRDKNAF	2.93 ± 0.063
YGKQVLWN	inactive
TEYVMSQNHLKQW	inactive
DFFAHVNAIG	inactive
PKAGALQQFMMRHSSHFQLS	inactive
FPHSSGCYDAVTWSSWNGGH	inactive
RPMRACRGMEVRGFSSEVSA	inactive
HSFFVVQAS	inactive
IGCCFSVLKNLLFSFDVKQF	inactive
CYFVSVKLLTGVKLSHKYL	1.25 ± 0.15
CRFVNLFGCVGS	inactive
SWYAKGFI	inactive
MSLRSSRHTPVDSQISSMEM	inactive
LRVLAP	0.815 ± 0.16
KLNILKTGMLCYVPHLIAHI	inactive
SFNSQSSRRVDNQRWVNLNF	0.886 ± 0.11
MMNVWLAFAPGML	0.9 ± 0.14

Substance	amyloid nucleation score
GGLTSYDQ	inactive
HIWVCLEVGVGKSILVLLLF	inactive
FKRWLSSWFKLA	inactive
VARGNMCNL	inactive
AWRAISDKTDGGSYDKSVIV	-0.364 ± 0.8
FDIYLCDMYSLIFVCTGRLP	-0.544 ± 0.66
CWDYWACGQGTA	inactive
TVAEMNIMLC	2.37 ± 0.076
IFNKVSLYNEMLVWVLTWSW	inactive
SDLTMIRVPIFITLRPPHSS	inactive
QGLSRIRTKQGLAWIGLYTV	inactive
VIVVREYVVWKNISMIVDYL	-0.019 ± 0.24
RIVNS	inactive
RFGVSKLARAS	inactive
GIANRAFITDGGWGLFISTY	inactive
PNNSIHQIICYIWNEYTWSC	2.55 ± 0.059
NRWTIPCFCGRKL	1.12 ± 0.089
WHSKWVWNHNWLGSINCRYE	inactive
SGLSSRNSYTFVSKRVVGVR	inactive
GSSAPKWVWNWFVPYGKRQG	1.3 ± 0.089
QDFYSACSNIVNST	inactive
LYMRLIGIRRAMHIYPPLKS	inactive
AISGIPESIVMLSYFRL	inactive

Substance	amyloid nucleation score
KRKQVSFTH	inactive
GFFLLNSYSNCMFCKLHTGT	1.97 ± 0.082
LVEMKALRTD	inactive
LKKVCDECRFSESPLVPEVA	1.06 ± 0.13
AWFTEVYFKPSFRKR	inactive
FRYVIVYKRSSFGYRKCIEC	inactive
VYAVIDWRDLCF	inactive
WDSWESYFASHHSF	inactive
VRFLGFHKCVILAIDYDQFL	1.67 ± 0.1
NTCDAPMSNGYAWWD	-0.399 ± 0.75
CTNCNAKAYPWGTVSMPREW	inactive
PRGLVALGFGAFSKGPHGRS	inactive
IWCSRAGVRWVEMNVEQVYW	inactive
HPRTLSRLNINFRANRYGWS	-0.859 ± 1.7
LGTGSLNHST	inactive
YQVVVGNFCLLHSVCI	0.124 ± 0.38
WVHRIAS	inactive
LMCDWGVY	-0.175 ± 0.85
ANVHNTENLRGLILCRRLLH	inactive
VVLMALVQVYFTSGGMFIKD	inactive
IEVLKNLRMVTGLVTL	inactive
WYGDNRGIMYVLGSRINWRY	1.34 ± 0.087
TGHSQSLVVLTCWCVLFHAR	inactive

Substance	amyloid nucleation score
AIIDYFMM	inactive
EYYRWFYN	inactive
KTDIPGNHFLTSARLCAG	inactive
ETYHCIV	inactive
VEPDRERKENVC	inactive
SIFCFDYWQDIGTFMPSAVK	inactive
HDKAVQEVGQGCGE	1.34 ± 0.11
YVVFFDFLSQTVIWVSPGRF	inactive
HWFLYLPFSPYCIPRIPDYL	inactive
FKVLSFKSENSSYYVPFGLD	inactive
SGSSVPSLYCVDYAVDG	inactive
ASSRSHPV	inactive
LINGTGDRMYTDLLL	inactive
VLRYWRRLGQYTAGSYPEVL	inactive
TCLVGHDKKIDFIV	inactive
SYPGQLRSPVSV	inactive
ESTIEMIAL	1.25 ± 0.11
FHMFMTYTWYPVI	inactive
LYGLLSCSERVVKLWFWSWV	inactive
HLACLRV	inactive
PNVMNNFVCITDPIPVGSMW	inactive
ISDLWLFATCSLK	inactive
TVRDELSSVFL	inactive

Substance	amyloid nucleation score
YAWGYSSWETRN	inactive
NMLMMWCFLVSYNEKMRKTV	inactive
SAYTTLRDRRCSKGYNMILG	inactive
NILGLKCPSYYPQHVSCGYY	inactive
SPWYVVFMCNLIFYKGEFTR	inactive
SYWLCEVMTLYFFNCFYVLG	inactive
CCFVRWGFGC	1.38 ± 0.091
GGCCAYCSLDLVWMFDDRSV	2.16 ± 0.081
YWVRNVGYRRNSSSCTWSRG	inactive
REVVRDWERCY	inactive
LLTVEVPLWKIFDAML	inactive
FKITEYVSFNGTRPDNISMN	-0.082 ± 0.85
QTSNMVAWCLSLFRAGRPTK	inactive
MFLFKVTDTE	1.88 ± 0.098
ILPDLRTFPWSPVVIVHSR	inactive
WVYDSTIRHHH	inactive
SSKHC	inactive
MCSRCVAKLATTPRLGFNDS	inactive
VSTWGRDLVVTIAGR	inactive
LQYNISVWELC	inactive
YIETISPFLCGCYSIFSPMI	2.8 ± 0.084
WGGSVRYKVSRICLGQCERE	inactive
DCKLVDIDSLLVTFDR	inactive

Substance	amyloid nucleation score
WLRLSL	inactive
CILYYLNSSMVIGTCLFILN	1.36 ± 0.085
CSPGRIFHNGK	inactive
RWAKSEAVLLVFGEFSLVGW	inactive
PQASVDQFLYFPIWTYLGIN	inactive
NPFMW	inactive
MSPFADKRHLADILCVHGS	inactive
LGSLPGGETLHCLNRFQRLS	inactive
GLTTLCSVPKQYVKYFVVTH	inactive
VLCQSHACRSHAGLCSSNKI	inactive
YLNRLCLNTNISRAVRCY	inactive
GSYSRTLTYPHGENHENRKV	inactive
NWRMVQNQVVWVLRLNTYHY	inactive
ILDAMDTLLRYSGCDRLSWK	inactive
SSDSVNLIRYLYVRPRFPIH	inactive
TCVMPGVSQLRFGYWVWICR	inactive
VRKVSTAPAELHAIKSGDTH	inactive
VTRHEFVLLLETVPISYWPH	inactive
IQYIMTNLGPDYNRFEYM	inactive
ETRFIYAFYFD	inactive
CDWRESVFRRAVTLPVALWM	inactive
GAKIPELSLLMVTPINARSF	inactive
